Experimental findings from patent US20240092916A1 (Astellas, published 2024) are described below.

Common to all, as to test: ELISA, antigen immobilized at 1 µg/mL, detection with anti-human kappa-HRP
A general note: In an ELISA, binding on a coated surface is turned into a signal by an enzyme label.

For assay [1], the target named is T1, ActRIIB-His (LifeSpan Biosciences, LS-G38834) (Homo sapiens (Human), UniProt Q13705 19-137).
T1 construct: Bought reagent
T1 sequence: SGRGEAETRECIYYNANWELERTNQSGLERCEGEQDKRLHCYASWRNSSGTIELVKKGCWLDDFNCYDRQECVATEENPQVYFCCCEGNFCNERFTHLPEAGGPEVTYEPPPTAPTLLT
How it is done: (§1) The binding activities of the humanized 75E9STF8-1 obtained in Example 4 to ActRIIA, ActRIIB, and Fn14 were evaluated. ActRIIA-His (LifeSpan Biosciences, LS-G39063), ActRIIB-His (LifeSpan Biosciences, LS-G38834), and the human Fc fusion proteins including the extracellular domain of human Fn14 prepared in Example 3 were each diluted to 1 μg/mL with phosphate-buffered physiological saline (PBS), each added to a Maxisorp 384-well transparent plate (Nunc, 464718) at 15 μL/well, and incubated at 4° C. overnight for immobilization. On the next day, the solid phase liquid was removed and washing was performed with a 0.05% Tween-20-containing Tris-buffered physiological saline (TBS-T). Thereafter, PBS including 20% Blocking One (Nacalai tesque, Inc., 03953-95) was added thereto at 50 μL/well, and the mixture was left to stand at room temperature for 1 hour and then washed with TBS-T. Dilution series of humanized 75E9STF8-1 were prepared by dilution in 12 steps at a 4-fold common ratio from the maximum concentration of 30 μg/mL, and added at 20 μL/well. TBS-T including 5% Blocking One was used as a diluent. After incubation for 1 hour at room temperature, washing was performed with TBS-T. As a detection antibody, Goat Anti-Human Kappa, Mouse ads-HRP (SouthernBiotech, 2061-05) which had been 4,000-fold diluted with a diluent (TBS-T including 5% Blocking One) was added at 20 μL/well. After incubating at room temperature for 1.5 hours, the cells were washed with TBS-T, TMB+Substrate-Chromogen (DAKO, S159985) was added thereto, the mixture was left to stand, 1 M sulfuric acid was added thereto to stop the reaction, and the absorbance at 450 nm was measured with Infinite (registered trademark) 200 Pro (TECAN).

Assay [2] deals with T2, ActRIIA-His (LifeSpan Biosciences, LS-G39063) (Homo sapiens (Human), UniProt P27037 20-135).
T2 construct: Bought reagent
How it is done:
as §1

Assay [3] concerns the target T3, human Fc fusion protein including the extracellular domain of human Fn14 (human, UniProt Q9NP84 28-80).
T3 construct: extracellular domain; not shown: human Fc
T3 sequence (looked up): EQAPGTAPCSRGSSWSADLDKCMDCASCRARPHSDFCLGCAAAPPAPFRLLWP
How it is done:
as §1

The EC50 is the concentration that produces a half-maximal response. Lower therefore signals greater potency.

T2 sequence (P27037 20-135 limits assumed, form in doubt, one chain of several): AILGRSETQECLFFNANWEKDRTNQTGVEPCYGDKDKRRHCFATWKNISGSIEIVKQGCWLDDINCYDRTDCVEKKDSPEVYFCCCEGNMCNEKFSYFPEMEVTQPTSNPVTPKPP

B1: humanized 75E9STF8-1 (bispecific antibody, human IgG1, kappa, L234A L235A)
heavy: EVQLVESGGGLVQPGGSLRLSCAASRSIFAYGTMAWYRQAPGKGRELVATISGGGTTSYSDSVKGRFTISRDNGKSTVYLQMNSLRAEDTAVYYCNKRSIGTNDFWGQGTLVTVSSGGGGSGGGGSGGGGSGGGGSGGGGSEVQLVESGGGLVQPGGSLRLSCAASGFTLTTNALIWGRQAPGAAPGKGPEWVAGIRADGRPYYGDSMKGRVTISRDIAKNTAYLQMNSLRPEDTAVYFCATRLDDSGTYDRGRGTTVTVSSGGGGSGGGGSEVQLVESGGGLVKPGGSLRLSCAASGITFSTYGMNWVRQAPGKGLEWVSSISSRSIHISYADSVKGRFTISRDNAKNSLYLQMSSLRADDTAVYYCARDRGAAAFDYWGRGTLVAVSSASTKGPSVFPLAPSSKSTSGGTAALGCLVKDYFPEPVTVSWNSGALTSGVHTFPAVLQSSGLYSLSSVVTVPSSSLGTQTYICNVNHKPSNTKVDKKVEPKSCDKTHTCPPCPAPEAAGGPSVFLFPPKPKDTLYITREPEVTCVVVDVSHEDPEVKFNWYVDGVEVHNAKTKPREEQYNSTYRVVSVLTVLHQDWLNGKEYKCKVSNKALPAPIEKTISKAKGQPREPQVYTLPPSRDELTKNQVSLTCLVKGFYPSDIAVEWESNGQPENNYKTTPPVLDSDGSFFLYSKLTVDKSRWQQGNVFSCSVMHEALHNHYTQKSLSLSPGK
light: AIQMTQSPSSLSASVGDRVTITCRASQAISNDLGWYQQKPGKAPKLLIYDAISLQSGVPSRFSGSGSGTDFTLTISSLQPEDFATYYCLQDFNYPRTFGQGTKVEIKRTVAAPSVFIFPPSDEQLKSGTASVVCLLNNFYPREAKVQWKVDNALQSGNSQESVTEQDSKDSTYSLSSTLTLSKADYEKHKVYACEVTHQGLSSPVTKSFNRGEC
notes: Expressed in CHO-K1SV cells
Take B1: the EC50 was found to be 9.24 ng/mL in assay [1], 5.03 ng/mL in assay [2] and 23.3 ng/mL in assay [3].
